{"source": "patent US20210340238A1", "about": "“TGFß1 INHIBITORS AND USE THEREOF” (Scholar Rock, Inc., priority 2018, published 2021)", "key": {"[1]": {"tested_on": "Matrix-associated proTGFβ1 vs Cell-associated proTGFβ1", "experiment": "MSD-SET binding, matrix vs cell bias (G/D)", "parameters": "species or system human", "settings": "ratio of cell average KD to ECM average KD", "excerpt": "Column (A) of the table provides monoclonal antibodies with discrete amino acid sequences. […] Columns (B), (C), (E) and (F) provide affinities of each of the listed antibodies, measured in KD, towards the antigen complex as indicated, respectively. […] Similarly, Average KD values calculated from (E) and (F) are shown in the corresponding column (G), which collectively represents affinities of the antibodies to cell-surface or cell-associated proTGF complexes. Finally, relative ratios between the average KD values from columns (D) and (G) are expressed as fold bias” in column (H). Thus, the greater the numerical of column (H) is, the greater bias exists for the particular antibody, when comparing binding preferences of the antibody for matrix-associated complexes to cell-surface complexes. This is one way of quantitatively representing and comparing inherent bias of antibodies to their target complexes. Such analyses may be useful in guiding the selection process for a candidate antibody for particular therapeutic use. Select antibodies of the present disclosure, as measured by MSD-SET, show context-bias (i.e., greater than five-fold bias) or unbias (i.e., less than 5-fold bias) toward matrix-associated complexes over cell-associated complexes. […] Without being bound by a particular theory, the differences in the kinetics of the assays and/or differences in the nature of recombinant proteins may account for the noticeable differences seen in Ab19 binding to hGARP complexes observed in the above Octet assay (see Table 6) compared to the below MSD-SET assay (see Table 7 below). For example, the Octet assay measures kinetic on and off rates, while the MSD-SET assay measures binding at equilibrium. In addition, the recombinant antibodies used in the Octet assay were expressed as IgG1 antibodies in yeast, while the antibodies used in the MSD assay were expressed as IgG4 antibodies in mammalian cells."}, "CloudmanS91 tumors": {"tested_on": "CloudmanS91 tumors", "experiment": "CloudmanS91 melanoma mouse model, combination with anti-PD-1", "type": "in vivo", "settings": "10 mg/kg and 30 mg/kg i.p. weekly, in combination with anti-PD1", "description": "Clone M3 [Cloudman S91 melanoma] (ATCC® CCL-53.1™) cells were obtained from the American Type Culture Collection (ATCC), and were maintained at CR Discovery Services as exponentially growing suspension cultures in Kaighn's modified Ham's F12 Medium supplemented with 2.5% fetal bovine serum, 15% horse serum, 2 mM glutamine, 100 units/mL penicillin G sodium, 100 μg/mL streptomycin sulfate and 25 μg/mL gentamicin. The tumor cells were grown in tissue culture flasks in a humidified incubator at 37° C., in an atmosphere of 5% CO2 and 95% air.\nAn untreated control was used, data not shown."}, "[2]": {"tested_on": "fibrosis-associated genes (Col1a1, Col3a1, Fn1, Lox, Lox/2, Acta2, Mmp2, Itga11)", "experiment": "Unilateral ureteral obstruction (UUO) model of acute kidney fibrosis, qPCR of fibrosis-associated genes", "type": "in vivo, mouse", "settings": "i.p. days −1 and 4, kidney qPCR day 5", "description": "Inhibition of acute fibrosis by anti-TGFβ1 antibodies was tested in the unilateral ureteral obstruction (UUO) model of acute kidney fibrosis. In this model, fibrosis is induced in male mice by permanent surgical ligation of the left ureter on study day 0.\nKidneys were collected at the end of study, on day 5 after surgery, and RNA was harvested from these tissues. The degree of fibrosis induction was subsequently assessed by quantitative polymerase chain reaction (qPCR) for a panel of fibrosis-associated genes, including Collagen I (Col1a1), Collagen III (Col3a1), Fibronectin 1 (Fn1), Lysyl Oxidase (Lox), Lysyl Oxidase-like 2 (Lox/2), Smooth muscle actin (Acta2), Matrix metalloprotease (Mmp2), and Integrin alpha 11 (Itga11) (Rolfe, Irvine, Grobbelaar, & Linge, 2007) (Tamaki et al., 1994) (Bansal et al., 2017)(Leaf& Duffield, 2016)."}, "[3]": {"tested_on": "liver fibrosis (pSmad2/3, hydroxyproline, type I collagen)", "settings": "CDHFD mice, weeks 4-12", "from_the_text": "The Choline deficient high fat diet (CDHFD) is an established dietary model of Non-Alcoholic steatohepatitis (NASH). In this model, male C57BL/6J mice are fed a choline deficient, 0.1% Methionine, high fat diet for 12 weeks. Three to six weeks after the start of the CDHFD, expression of α-sma protein (a marker for activation of hepatic stellate cells) increases and the development of hepatic fibrosis is accompanied by an increase in the hydroxyproline content accompanied by a rise in intrahepatic collagen synthesis and deposition (Matsumoto et. al, Int J Exp Pathol. 2013 April; 94(2):93-103).\nAnimals in the test cohorts were on the CDHFD for the duration of the study. A separate cohort of mice were administered a regular chow diet as a study control. […] Antibody test concentrations were as follows: 15 mg/kg, 5 mg/kg or 1.5 mg/kg twice a week (i.e., 30, 10, or 3 mg/kg/week) for a test duration of 8 weeks (i.e., weeks 4 thru 12). An IgG isotype antibody was used as a negative control at 15 mg/kg twice weekly (30 mg/kg/week). Following 8 weeks of dosing, animals were sacrificed and livers collected for analyses.\nSerum measurements were also taken to determine the extent of antibody exposure during the study.\nTGFβ1 receptor engagement leads to intracellular signaling events including the phosphorylation of Smad2 and Smad3.\nHydroxyproline is a signature amino acid for fibrillar collagens and comprises approximately 13.5% of the protein. […] Hydroxyproline acts as an important diagnostic indicator of the severity of fibrosis.\nTo assess the levels of type 1 collagen deposition in livers from CDHFD-treated mice, immunohistochemistry (IHC) protocols were developed for anti-mouse type I collagen antibody (rabbit polyclonal; Abcam; ab21286) using the Leica Bond RX staining system. Mouse liver was collected and fixed in 10% neutral buffered formalin (NBF) for 24 hours at room temperature. Fixed livers were then trimmed into 3-5 mm cross sections and stored in 70% ethanol until processed for paraffin infiltration and embedding. Paraffin embedded livers were sectioned at 4 μm and mounted on slides for IHC staining. Type 1 collagen primary antibody was used at a 5 μg/mL final concentration along with a matched isotype primary control (rabbit monoclonal IgG; Cell Signaling Technologies; 3900S). Epitope retrieval was performed with a pH 6 citrate buffer incubated at 100° C. for 20 minutes. […]\nStained slides were sent to HistoTox Labs for imaging with an Aperio AT2 whole slide scanner and collagen staining was analyzed using Visiopharm image analysis software. […] Total collagen positive area was measured using an intensity-based thresholding algorithm which classified each pixel of the image as high positive, medium positive, low positive, or negative staining area."}, "proTGFβ1 C4S": {"target": "proTGFβ1 C4S (Homo sapiens, UniProt P01137, C33S)", "sequence (P01137 30-390 C33S)": "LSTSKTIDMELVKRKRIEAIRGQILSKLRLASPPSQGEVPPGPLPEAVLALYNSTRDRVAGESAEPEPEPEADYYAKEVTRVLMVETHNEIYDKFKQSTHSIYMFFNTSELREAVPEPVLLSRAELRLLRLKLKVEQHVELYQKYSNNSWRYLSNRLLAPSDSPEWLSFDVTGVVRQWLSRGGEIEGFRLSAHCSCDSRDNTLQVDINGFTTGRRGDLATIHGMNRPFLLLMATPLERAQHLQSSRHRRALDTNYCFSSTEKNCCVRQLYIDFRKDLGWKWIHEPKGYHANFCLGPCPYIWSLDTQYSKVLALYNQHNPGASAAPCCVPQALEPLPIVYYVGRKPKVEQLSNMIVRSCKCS", "experiment": "HDX-MS determination of binding regions", "settings": "1:3 molar ratio of proTGFβ1 to Fab", "from_the_text": "Briefly, HDX-MS relies on the exchange of the protein backbone amide hydrogens with deuterium in solution. The backbone amide hydrogens involved in weak hydrogen bonds or located at the surface of the protein may exchange rapidly while those buried in the interior or those involved in stabilizing hydrogen bonds exchange more slowly. Based on the mass difference between hydrogen (1 Da) and deuterium (2 Da), which can be detected for example by mass spectrometry, the H-D exchange can be monitored overtime, Thus, by measuring HDX rates of backbone amide hydrogens, one can obtain information on protein dynamics, conformation and protein-protein interaction such as antibody-antigen-binding.\nIn HDX-MS, the regions of an antigen that are tightly bound by an antibody are protected from proton exchange, due to protein-protein interaction, while regions that are exposed to solvent can readily undergo proton exchange. Based on this, binding regions within the antigen, which are protected by the specific binding of the antibody, were identified."}, "[4]": {"tested_on": "liver fibrosis (liver hydroxyproline)", "experiment": "CCl4 model of liver fibrosis", "type": "in vivo, mouse", "settings": "CCl4 mice, 4 weeks", "description": "Carbon tetrachloride (CCl4) treatment of mice is a well-characterized model of liver fibrosis. In this model, Balb/C mice were dosed intraperitoneally (i.p.) twice weekly with 2.5 μl of a 20% CCl4 solution in corn oil per gram bodyweight. This CCl4 dosing was maintained throughout the duration of the study(6 weeks). After two weeks of CCl4 dosing, dosing with test articles started. […] After 6 weeks of CCl4 dosing (4 weeks of antibody treatment), mice were sacrificed and liver tissue was collected.\nThe hydroxyproline assay (see description above) was used to measure fibrosis in liver lysates from this study. […] The treatment effect of both TGFβ1-specific antibodies was similar to that of the pan-TGFβ inhibitor 1D11."}}, "note": "“Also recorded” adds a separate entry of the source."}
{"molecule": "Ab2: isoform-selective inhibitor of TGFβ1 activation; VH SEQ ID NO: 13, VL SEQ ID NO: 15; human IgG4 (antibody, V domains shown, human IgG4 constant regions) VH: EVQLLESGGGLVQPGGSLRLSCAASGFTFADYAMTWVRQAPGKGLEWVSAISGSGAATYFADSVKGRFTISRDNSKNTLYLQMNSLRAEDTAVYYCARVSSGHWDFDYWGQGTLVTVSS VL: DIQLTQSPSSLSASVGDRVTITCRASQSISSYLNWYQQKPGKAPKLLIYAASNLQSGVPSRFSGSGSGTDFTLTISSLQPEDFATYYCQQTYTVPLTFGGGTKVEIK", "values": [{"measurement": "(H) G/D (fold bias)", "setting": "[1]", "value": 8.66, "unit": "fold"}, {"measurement": "Tumor growth (median tumor progression)", "setting": "CloudmanS91 tumors", "value": "delayed tumor growth"}, {"measurement": "Fibrosis-associated gene expression in UUO kidney vs UUO+IgG", "setting": "[2]; 3 mg/kg/wk", "value": "trend towards reduced Col3a1 expression, though this effect does not reach statistical significance; also recorded: reduction of both Fn1 and, particularly, Lox/2 (P=0.06), though suppression of neither gene is statistically significant; also recorded: Col1a1 and Lox expression were also reduced"}, {"measurement": "Fibrosis-associated gene expression in UUO kidney vs UUO+IgG", "setting": "[2]; 10 mg/kg/wk", "value": "suppressed fibrotic gene induction by UUO; also recorded: highly significant (P<0.005 vs UUO+IgG) inhibition of both Fn1 and Lox/2; also recorded: all genes examined except Mmp2 showed a statistically significant change in expression"}, {"measurement": "Relative ratio of phosphorylated Smad2/3 in liver lysates (ELISA)", "setting": "[3]; 15, 5 or 1.5 mg/kg i.p. twice a week", "value": "significantly reduced the relative ratio of phosphorylated Smad2/3 compared to IgG control; also recorded: inverse correlation between serum levels of Ab2 and phosphorylated Smad2/3; also recorded: significantly reduces phosphorylation of Smad2/3 as compared to Ab3 and IgG treated mice on CDHFD"}, {"measurement": "Liver fibrosis as measured by hydroxyproline levels", "setting": "[3]; i.p. twice a week, vs IgG control", "value": "marked reduction in collagen deposition"}, {"measurement": "Regions of proTGFβ1 protected from H/D exchange upon Fab binding (binding regions 1, 2, 3)", "setting": "proTGFβ1 C4S", "value": "LREAVPE; also recorded: WKWIHEPKGYHANFCLG"}, {"measurement": "Liver hydroxyproline", "setting": "[4]; high dose 15 mg/kg i.p. twice weekly", "value": "statistically significant reduction in liver hydroxyproline"}, {"measurement": "Liver hydroxyproline", "setting": "[4]; lower doses 5 or 1.5 mg/kg i.p. twice weekly", "value": "trend towards reduced liver hydroxyproline, but these differences are not statistically significant"}]}
